# Experimental data from the supplement of paper PMC10126150.
# ± gives the standard deviation of the averaged measurements.
# Test system: ATP
# Test: switch fluorescence ratio, 500 uM ATP over buffer (Cy3 cluster intensity, sum of 5 cycles each) (fold (ratio)); higher = stronger signal-on switching upon ATP binding; sequences stand for … in TCGTCGGCAGCGTCAGATGTGTATAAGAGACAGTTTTTTTTTTTTTTTTTTTTTTTTT…TC
# Conditions: aptamer strand: ATP DNA aptamer (quencher-CACCTGGGGGAGTATTGCGGAGGAAGG + anchor), 100 nM annealed; ATP concentration: 500 uM
# In short: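 Values give the fluorescence ratio for each switch-domain sequence, averaged from per-cluster ratios of summed target-cycle to summed buffer-cycle Cy3 intensity. The Cy3-labelled switching-strand clusters sat on a modified Illumina MiSeq flow-cell, were annealed to 100 nM quencher-labelled ATP aptamer, and were imaged in selection buffer, then after 15 min with 500 uM ATP at 22 °C. Five cycles ran with NaOH stripping and re-annealing between them, and clusters outside 100-1000 RFU were excluded.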
# 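Note: ATP exposure 15 min at 22 °C before imaging.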
row,Sequence,switch fluorescence ratio
1,AAGATACGTT,1.03 ± 0.011
2,AAGATAGGTT,1.02 ± 0.057
3,AAGATATGGC,1.02 ± 0.047
4,AAGATCAGGC,0.9735 ± 0.0023
5,AAGATGAGTA,0.982 ± 0.032
6,AAGATGATGG,1.01 ± 0.023
7,AAGATGGGTG,0.9968 ± 0.005
8,AAGATGTAAT,1.01 ± 0.0079
9,AAGATGTCGT,1.022 ± 0.0014
10,AAGATTAGTT,0.998 ± 0.017
11,AAGATTCGCC,0.993 ± 0.012
12,AAGATTGTAA,0.996 ± 0.03
13,AAGATTTAGG,1.01 ± 0.063
14,AAGATTTGAC,1.003 ± 0.0085
15,AAGATTTGTT,0.978 ± 0.021
16,AAGATTTTAT,0.977 ± 0.019
17,AAGATTTTGT,0.995 ± 0.014
18,AAGATTTTTC,0.992 ± 0.013
19,AAGCACGGTT,1.08 ± 0.093
20,AAGCACGTTG,1.05 ± 0.027
21,AAGCAGACGG,1.05 ± 0.036
22,AAGCAGGGCT,0.999 ± 0.019
23,AAGCAGGGTG,1 ± 0.04
24,AAGCAGTCA,1.01 ± 0.038
25,AAGCAGTTAC,3.41 ± 0.3

row,Sequence,switch fluorescence ratio
1,AAGCATCTTT,0.974 ± 0.013
2,AAGCATTTAC,3.118 ± 0.021
3,AAGCCAGATG,1.076 ± 0.0092
4,AAGCGAGGGG,1.03 ± 0.047
5,AAGCGAGTTC,0.9981 ± 0.0089
6,AAGCGCTTTT,0.979 ± 0.058
7,AAGCGGGACG,0.999 ± 0.054
8,AAGCGGGCAG,1 ± 0.02
9,AAGCGGGGTG,1.06 ± 0.063
10,AAGCGGTCGC,0.99 ± 0.017
11,AAGCGTGCCT,1.01 ± 0.018
12,AAGCTACGGC,1.02 ± 0.019
13,AAGCTAGGAG,0.999 ± 0.041
14,AAGCTCGGTA,0.9866 ± 0.0065
15,AAGCTGATCT,1.016 ± 0.0071
16,AAGCTGCCTG,1.02 ± 0.018
17,AAGCTGTTTC,1.009 ± 0.0061
18,AAGCTTTACG,1.052 ± 0.0079
19,AAGCTTTATG,1.003 ± 0.0052
20,AAGCTTTGGA,0.983 ± 0.012
21,AAGCTTTTAT,0.993 ± 0.06
22,AAGGAAAGGC,0.961 ± 0.037
23,AAGGAAATAG,0.969 ± 0.0021
24,AAGGAAGAGG,0.984 ± 0.064
25,AAGGAATTAA,1.07 ± 0.12

row,Sequence,switch fluorescence ratio
1,AAGGAATTGT,0.9729 ± 0.0085
2,AAGGAATTTT,1.05 ± 0.1
3,AAGGACAAGG,0.999 ± 0.043
4,AAGGACCTCC,1.232 ± 0.0034
5,AAGGACGCTG,0.991 ± 0.069
6,AAGGACGTGG,0.98 ± 0.029
7,AAGGACTAAC,1.12 ± 0.012
8,AAGGACTATT,1.03 ± 0.011
9,AAGGAGCTGA,0.9915 ± 0.0037
10,AAGGAGTTTT,0.973 ± 0.034
11,AAGGATTAGA,0.987 ± 0.02
12,AAGGATTGGG,1.02 ± 0.0049
13,AAGGCAACGC,0.98 ± 0.056
14,AAGGCAATTT,1.02 ± 0.048
15,AAGGCACCTG,1.03 ± 0.042
16,AAGGCATGCA,1.01 ± 0.032
17,AAGGCATGCG,1.037 ± 0.005
18,AAGGCATTAT,1.005 ± 0.0081
19,AAGGCCGGGT,1.05 ± 0.054
20,AAGGCGGGGA,1.017 ± 0.0051
21,AAGGCGGGGC,0.981 ± 0.051
22,AAGGCTGCAG,0.92 ± 0.05
23,AAGGCTTAGC,1.03 ± 0.039
24,AAGGGAATAC,2.6 ± 0.82
25,AAGGGATCTG,0.9763 ± 0.0069

row,Sequence,switch fluorescence ratio
1,AAGGGATGCG,1.09 ± 0.097
2,AAGGGATGGC,1.03 ± 0.043
3,AAGGGATTAA,1.01 ± 0.016
4,AAGGGATTGG,0.981 ± 0.031
5,AAGGGCCTGG,0.982 ± 0.029
6,AAGGGCGTAT,1.01 ± 0.02
7,AAGGGCTCAT,0.97409 ± 0.00079
8,AAGGGCTGTG,0.9845 ± 0.007
9,AAGGGGACTT,1.02 ± 0.037
10,AAGGGGAGGT,1.02 ± 0.041
11,AAGGGGAGTC,1.01 ± 0.0044
12,AAGGGGAGTG,1.02 ± 0.11
13,AAGGGGATGG,0.968 ± 0.038
14,AAGGGGATTA,0.99 ± 0.033
15,AAGGGGCATT,1.01 ± 0.011
16,AAGGGGCGAG,0.9796 ± 0.0074
17,AAGGGGCGCC,0.999 ± 0.052
18,AAGGGGCGGG,0.952 ± 0.011
19,AAGGGGGAGC,0.988 ± 0.042
20,AAGGGGGCAG,0.994 ± 0.025
21,AAGGGGGCCG,1.06 ± 0.092
22,AAGGGGGCGG,1 ± 0.015
23,AAGGGGGGAC,1.04 ± 0.07
24,AAGGGGGGCG,1.02 ± 0.037
25,AAGGGGGGGT,0.999 ± 0.03
